Kd data for one molecule are collected here from article PMC6225287 (2018).

The assay concerns the target FGF-2 (Homo sapiens, UniProt P09038). Nature of the assay: SPR. (In SPR one partner is held on a chip, and binding of the other changes the refractive index at the surface.)

Sequence of FGF-2 (P09038 143-288): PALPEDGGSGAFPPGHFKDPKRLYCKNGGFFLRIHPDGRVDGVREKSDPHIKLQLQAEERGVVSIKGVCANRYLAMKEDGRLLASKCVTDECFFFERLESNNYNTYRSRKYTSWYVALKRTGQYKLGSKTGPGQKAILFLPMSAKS

Broadly, the Kd is a measure of binding affinity in units of concentration. As for QEDYDKDGIGDACDD [DD15 peptide (thrombospondin-1) type III repeats], the affinity, expressed as Kd, was 28 µM. This lies in the double-digit micromolar range.
